Measurements reported in paper PMC4368098, “DICER-ARGONAUTE2 Complex in Continuous Fluorogenic Assays of RNA Interference Enzymes”.

B1: D10 (dsRNA)
RNA 1: CCUGAGGAAGAACUAAAUCCAAAGAUA
RNA 2: UCUUUGGAUUUAGUUCUUCCUCAGG
B2: D08 (dsRNA)
RNA 1: CCAGAAGAACUUUUAGGCCGCUCAAUU
RNA 2: UUGAGCGGCCUAAAAGUUCUUCUGG
B3: D09 (dsRNA)
RNA 1: CAGACACCUAGUCCUUCCGAUGGAAGC
RNA 2: UUCCAUCGGAAGGACUAGGUGUCUG
B4: D11 (dsRNA)
RNA 1: ACCUGAGCCUAAUAGUCCCAGUGAAUA
RNA 2: UUCACUGGGACUAUUAGGCUCAGGU
B5: D25 (dsRNA)
RNA 1: GCACCCCCACCUCUGGACUUGCCUUUC
RNA 2: AAGGCAAGUCCAGAGGUGGGGGUGC
B6: D12 (dsRNA)
RNA 1: UACUCAGGACACAGAUUUAGACUUGGA
RNA 2: CAAGUCUAAAUCUGUGUCCUGAGUA
B7: D02 (dsRNA)
RNA 1: GCUGAUUUGUGAACCCAUUCCUCAC
RNA 2: GUGAGGAAUGGGUUCACAAAUCAGCAC
B8: D07 (dsRNA)
RNA 1: GGAUAAAAUUCUCAAUUCAGAGAAA
RNA 2: UUUCUCUGAAUUGAGAAUUUUAUCCAA
B9: D06 (dsRNA)
RNA 1: GGAUAGUGAUAUGGUCAAUGAAUUC
RNA 2: GAAUUCAUUGACCAUAUCACUAUCCAC
B10: D04 (dsRNA)
RNA 1: GUUCCUGAGGAAGAACUAAAUCCAA
RNA 2: UUGGAUUUAGUUCUUCCUCAGGAACUG
B11: D01 (dsRNA)
RNA 1: ACCGGUUGAAUCUUCAGAUAUGAAA
RNA 2: UUUCAUAUCUGAAGAUUCAACCGGUUU
B12: D05 (dsRNA)
RNA 1: GGAACAUGAUGGUUCACUUUUUCAA
RNA 2: UUGAAAAAGUGAACCAUCAUGUUCCAU
B13: D03 (dsRNA)
RNA 1: CCGGUUGAAUCUUCAGAUAUGAAAA
RNA 2: UUUUCAUAUCUGAAGAUUCAACCGGUU

These binders were tested against DICER;ARGONAUTE2 (AGO2) (human;human, UniProt Q9UPY3;Q9UKV8 1-1922;1-859, |) (assay: competition (fluorogenic siRNA processing); 80 nM BoPsi664, 30 nM each enzyme; Assay Buffer with 1 mM free Mg2+ (full composition not in the material), 37 C; indirect read-out by competitive inhibition of fluorogenic siRNA processing, no d). Conditions: protein: recombinant;recombinant, tags: C-terminal 6xHis with TEV site, tag removed by TEV;N-terminal 6xHis with TEV site, copies: 1;1, 3' overhang 2 nt on strand 1, other end blunt.
B1 showed an IC50 of 633 nM.
With B2 the IC50 was 1060 nM.
In the case of B3, the IC50 is reported as 767 nM.
With B4 the IC50 was 364 nM.
B5 was tested, and the IC50 was 796 nM.
Binder B6 has an IC50 of 453 nM.

Same assay, conditions: protein: recombinant;recombinant, tags: C-terminal 6xHis with TEV site, tag removed by TEV;N-terminal 6xHis with TEV site, copies: 1;1, 3' overhang 2 nt on strand 2, other end blunt
B7 gave an IC50 of 142 nM.
For B8, the IC50 was 282 nM.
B9 showed an IC50 of 474 nM.
Binder B10 has an IC50 of 180 nM.
In the case of B11, the IC50 is reported as 56 nM.
B12 showed an IC50 of 209 nM.
B13 was tested, and the IC50 was 150 nM.
